Biological target: T1, biotinylated CD59 (Homo sapiens, UniProt P13987)
T1 construct: Recombinant soluble human CD59 with an additional C-terminal cysteine residue
T1 sequence (P13987 26-102 limits assumed): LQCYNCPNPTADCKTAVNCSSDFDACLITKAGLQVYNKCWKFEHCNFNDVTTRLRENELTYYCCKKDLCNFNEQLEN
Assay: mRNA-display cyclic peptide screen against CD59-biotin, NGS abundance after 6th selection round
Settings: for Percentage Seq I: counts normalised by total counts of sample Seq I; for Percentage Seq I / Percentage Seq II: percentage of the pool; for Percentage Seq I / Percentage Seq II / Percentage Average / Percentage of the pool, averaged across the two sequencing samples / Percentage of the pool, Seq I / Percentage of the pool, Seq II: sheet R6; for Percentage Seq II: counts normalised by total counts of sample Seq II; for Percentage Average: percentage of the pool averaged across the two sequencing samples; for Counts Seq I / Counts Seq II: raw NGS counts of peptide sequence; for Counts Seq I: sequencing sample Seq I; for Counts Seq I / Counts Seq II / Counts (raw counts for peptide sequence), Seq I / Counts (raw counts for peptide sequence), Seq II: sheet R6 (6th selection round); for Counts Seq II: sequencing sample Seq II; for Counts (raw counts for peptide sequence), Seq I: NGS sample Seq I; for Counts (raw counts for peptide sequence), Seq II: NGS sample Seq II; for Percentage of the pool, averaged across the two sequencing samples: average of Seq I and Seq II; for Percentage of the pool, Seq I: counts normalised by total counts of NGS sample Seq I; for Percentage of the pool, Seq II: counts normalised by total counts of NGS sample Seq II
In short: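 Peptide–mRNA fusions were made by in vitro translation with a customised PURE express kit. The kit lacked release factor 1 and methionine and was supplemented with […] initiator tRNA carrying N-chloroacetyl-d-tyrosine. Thioether macrocycles were formed, then enriched and amplified over iterative rounds on CD59-biotin immobilised on streptavidin beads. NGS read counts per sequence were recorded after the 6th selection round.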

QWNRWYGIDEL
Percentage Seq I: 0.075%
Percentage Seq II: 0.070%
Percentage Average: 0.072%
Counts Seq I: 329
Counts Seq II: 30

CFVNRLSDSLSL
Percentage Seq I: 0.048%
Percentage Seq II: 0.070%
Percentage Average: 0.059%
Counts Seq I: 212
Counts Seq II: 30

SAWGNRQIQHY
Counts (raw counts for peptide sequence), Seq I: 74
Counts (raw counts for peptide sequence), Seq II: 3
Percentage of the pool, averaged across the two sequencing samples: 0.012%
Percentage of the pool, Seq I: 0.017%
Percentage of the pool, Seq II: 0.007%

ILGSRDTIKYW
Percentage Seq I: 0.118%
Percentage Seq II: 0.167%
Percentage Average: 0.142%
Counts Seq I: 515
Counts Seq II: 72

WRDRFGQCVL
Counts (raw counts for peptide sequence), Seq I: 27
Counts (raw counts for peptide sequence), Seq II: 7
Percentage of the pool, averaged across the two sequencing samples: 0.011%
Percentage of the pool, Seq I: 0.006%
Percentage of the pool, Seq II: 0.016%

SWTWGNRSSVSG
Counts (raw counts for peptide sequence), Seq I: 73
Counts (raw counts for peptide sequence), Seq II: 2
Percentage of the pool, averaged across the two sequencing samples: 0.011%
Percentage of the pool, Seq I: 0.017%
Percentage of the pool, Seq II: 0.00464%

IASGSLHFVFY
Percentage Seq I: 0.027%
Percentage Seq II: 0.032%
Percentage Average: 0.030%
Counts Seq I: 119
Counts Seq II: 14

GYLNECHTLYTL
Percentage Seq I: 0.024%
Percentage Seq II: 0.028%
Percentage Average: 0.026%
Counts Seq I: 105
Counts Seq II: 12

CFAGRLAIDAV
Counts (raw counts for peptide sequence), Seq I: 54
Counts (raw counts for peptide sequence), Seq II: 8
Percentage of the pool, averaged across the two sequencing samples: 0.015%
Percentage of the pool, Seq I: 0.012%
Percentage of the pool, Seq II: 0.019%

CRGNRFYQLSFH
Percentage Seq I: 0.154%
Percentage Seq II: 0.186%
Percentage Average: 0.170%
Counts Seq I: 674
Counts Seq II: 80

CYTYRSLDPQSV
Counts (raw counts for peptide sequence), Seq I: 42
Counts (raw counts for peptide sequence), Seq II: 9
Percentage of the pool, averaged across the two sequencing samples: 0.015%
Percentage of the pool, Seq I: 0.010%
Percentage of the pool, Seq II: 0.021%

YAQGDKLTARG
Percentage Seq I: 0.028%
Percentage Seq II: 0.026%
Percentage Average: 0.027%
Counts Seq I: 124
Counts Seq II: 11

CFGGRTFIYAWS
Counts (raw counts for peptide sequence), Seq I: 34
Counts (raw counts for peptide sequence), Seq II: 5
Percentage of the pool, averaged across the two sequencing samples: 0.010%
Percentage of the pool, Seq I: 0.008%
Percentage of the pool, Seq II: 0.012%

HCWVRGGRNYT
Percentage Seq I: 0.024%
Percentage Seq II: 0.014%
Percentage Average: 0.019%
Counts Seq I: 104
Counts Seq II: 6

FITGNRDHTRG
Percentage Seq I: 0.018%
Percentage Seq II: 0.026%
Percentage Average: 0.022%
Counts Seq I: 78
Counts Seq II: 11

CYGGRTFVYAWS
Percentage Seq I: 0.103%
Percentage Seq II: 0.104%
Percentage Average: 0.104%
Counts Seq I: 450
Counts Seq II: 45

AVAGSRHWAWG
Percentage Seq I: 0.039%
Percentage Seq II: 0.039%
Percentage Average: 0.039%
Counts Seq I: 171
Counts Seq II: 17

CFSRRLTEGAI
Counts (raw counts for peptide sequence), Seq I: 41
Counts (raw counts for peptide sequence), Seq II: 5
Percentage of the pool, averaged across the two sequencing samples: 0.010%
Percentage of the pool, Seq I: 0.009%
Percentage of the pool, Seq II: 0.012%

FVTGNRDHTRG
Percentage Seq I: 7.311%
Percentage Seq II: 7.094%
Percentage Average: 7.203%
Counts Seq I: 31986
Counts Seq II: 3057

LAWGNRQIQYY
Counts (raw counts for peptide sequence), Seq I: 78
Counts (raw counts for peptide sequence), Seq II: 6
Percentage of the pool, averaged across the two sequencing samples: 0.016%
Percentage of the pool, Seq I: 0.018%
Percentage of the pool, Seq II: 0.014%

TLSTNRDLIRLPAAAAAAARTGGG
Counts (raw counts for peptide sequence), Seq I: 63
Counts (raw counts for peptide sequence), Seq II: 7
Percentage of the pool, averaged across the two sequencing samples: 0.015%
Percentage of the pool, Seq I: 0.014%
Percentage of the pool, Seq II: 0.016%

SVRGDLYSVLG
Counts (raw counts for peptide sequence), Seq I: 74
Counts (raw counts for peptide sequence), Seq II: 7
Percentage of the pool, averaged across the two sequencing samples: 0.017%
Percentage of the pool, Seq I: 0.017%
Percentage of the pool, Seq II: 0.016%

FIRGNSTSVLY
Counts (raw counts for peptide sequence), Seq I: 58
Counts (raw counts for peptide sequence), Seq II: 8
Percentage of the pool, averaged across the two sequencing samples: 0.016%
Percentage of the pool, Seq I: 0.013%
Percentage of the pool, Seq II: 0.019%

CFRNRVLEITST
Percentage Seq I: 0.042%
Percentage Seq II: 0.032%
Percentage Average: 0.037%
Counts Seq I: 183
Counts Seq II: 14

SCSEWRRGTRS
Counts (raw counts for peptide sequence), Seq I: 43
Counts (raw counts for peptide sequence), Seq II: 4
Percentage of the pool, averaged across the two sequencing samples: 0.010%
Percentage of the pool, Seq I: 0.010%
Percentage of the pool, Seq II: 0.009%

STKNDYNNVPC
Percentage Seq I: 0.012%
Percentage Seq II: 0.026%
Percentage Average: 0.019%
Counts Seq I: 54
Counts Seq II: 11

CFSKRIAPGAQ
Percentage Seq I: 0.020%
Percentage Seq II: 0.019%
Percentage Average: 0.019%
Counts Seq I: 88
Counts Seq II: 8

TFRKRLTATCGT
Percentage Seq I: 0.016%
Percentage Seq II: 0.028%
Percentage Average: 0.022%
Counts Seq I: 68
Counts Seq II: 12

NYVERLCTSG
Counts (raw counts for peptide sequence), Seq I: 68
Counts (raw counts for peptide sequence), Seq II: 5
Percentage of the pool, averaged across the two sequencing samples: 0.014%
Percentage of the pool, Seq I: 0.016%
Percentage of the pool, Seq II: 0.012%

SSALERIGKCP
Percentage Seq I: 0.227%
Percentage Seq II: 0.211%
Percentage Average: 0.219%
Counts Seq I: 991
Counts Seq II: 91

CYGGQTFIYAWS
Percentage Seq I: 0.026%
Percentage Seq II: 0.030%
Percentage Average: 0.028%
Counts Seq I: 114
Counts Seq II: 13

HVSGNRSFTRG
Percentage Seq I: 0.024%
Percentage Seq II: 0.035%
Percentage Average: 0.029%
Counts Seq I: 104
Counts Seq II: 15

WAKGSDTFTSG
Counts (raw counts for peptide sequence), Seq I: 141
Counts (raw counts for peptide sequence), Seq II: 1
Percentage of the pool, averaged across the two sequencing samples: 0.017%
Percentage of the pool, Seq I: 0.032%
Percentage of the pool, Seq II: 0.00232%

CSRLTSRGWT
Counts (raw counts for peptide sequence), Seq I: 62
Counts (raw counts for peptide sequence), Seq II: 5
Percentage of the pool, averaged across the two sequencing samples: 0.013%
Percentage of the pool, Seq I: 0.014%
Percentage of the pool, Seq II: 0.012%

HVFGNRSFTSG
Percentage Seq I: 0.017%
Percentage Seq II: 0.021%
Percentage Average: 0.019%
Counts Seq I: 73
Counts Seq II: 9

SVTGNRDHTRG
Percentage Seq I: 0.021%
Percentage Seq II: 0.026%
Percentage Average: 0.023%
Counts Seq I: 92
Counts Seq II: 11

TAWGNRQIQYY
Counts (raw counts for peptide sequence), Seq I: 73
Counts (raw counts for peptide sequence), Seq II: 7
Percentage of the pool, averaged across the two sequencing samples: 0.016%
Percentage of the pool, Seq I: 0.017%
Percentage of the pool, Seq II: 0.016%

CFVRRLNDLTTT
Percentage Seq I: 0.121%
Percentage Seq II: 0.137%
Percentage Average: 0.129%
Counts Seq I: 528
Counts Seq II: 59

CIRGTPTTVWG
Percentage Seq I: 0.387%
Percentage Seq II: 0.362%
Percentage Average: 0.374%
Counts Seq I: 1692
Counts Seq II: 156

EARGTKSFAYY
Percentage Seq I: 0.124%
Percentage Seq II: 0.100%
Percentage Average: 0.112%
Counts Seq I: 544
Counts Seq II: 43

FVTGNRNHTRG
Percentage Seq I: 0.032%
Percentage Seq II: 0.028%
Percentage Average: 0.030%
Counts Seq I: 142
Counts Seq II: 12

WIYGGRHFRLS
Counts (raw counts for peptide sequence), Seq I: 82
Counts (raw counts for peptide sequence), Seq II: 2
Percentage of the pool, averaged across the two sequencing samples: 0.012%
Percentage of the pool, Seq I: 0.019%
Percentage of the pool, Seq II: 0.00464%

FVRGDLHSVLG
Percentage Seq I: 0.058%
Percentage Seq II: 0.044%
Percentage Average: 0.051%
Counts Seq I: 253
Counts Seq II: 19

FVTGNRGHTRG
Percentage Seq I: 0.024%
Percentage Seq II: 0.016%
Percentage Average: 0.020%
Counts Seq I: 105
Counts Seq II: 7

NTAWGNVAVAYF
Percentage Seq I: 0.042%
Percentage Seq II: 0.030%
Percentage Average: 0.036%
Counts Seq I: 183
Counts Seq II: 13

Source: article PMC12207370, “Macrocyclic Peptide Probes for Immunomodulatory Protein CD59: Potent Modulators of Bacterial Toxin Activity and Antibody‐Dependent Cytotoxicity” (Angewandte Chemie (International Ed. in English), 2025)
